This note sets out measurements from publication PMC6555819, “Comprehensive study of nuclear receptor DNA binding provides a revised framework for understanding receptor specificity”.

First the molecules themselves.
B1: NRC3_wobSeed98_DR4_C13A_o1 (dsDNA)
DNA 1: GCACTAGTTGGTAAGCTGAGGTCACACACAATTCGGGCGATTGACAGCGTAGAATGAAGG
DNA 2: CCTTCATTCTACGCTGTCAATCGCCCGAATTGTGTGTGACCTCAGCTTACCAACTAGTGC
B2: NRC3_wobSeed75_DR3_C6A_o1 (dsDNA)
DNA 1: GCTCTAGGAGGACACGAAGGTCAGAGCTTTCCAGAGGCGATTGACAGCGTAGAATGAAGG
DNA 2: CCTTCATTCTACGCTGTCAATCGCCTCTGGAAAGCTCTGACCTTCGTGTCCTCCTAGAGC
B3: NRC3_wobSeed21_DR0_A19T_o1 (dsDNA)
DNA 1: GCCGTCAAAGTTCAAGGTTACGTAACAGAAAGCAGCGCGATTGACAGCGTAGAATGAAGG
DNA 2: CCTTCATTCTACGCTGTCAATCGCGCTGCTTTCTGTTACGTAACCTTGAACTTTGACGGC
B4: NRC3_wobSeed141_DR5_G15C_o1 (dsDNA)
DNA 1: GCAGTCAAAGTTCACGACGAGGTAACGTAAAGCACGGCGATTGACAGCGTAGAATGAAGG
DNA 2: CCTTCATTCTACGCTGTCAATCGCCGTGCTTTACGTTACCTCGTCGTGAACTTTGACTGC
B5: NRC3_wobSeed9_DR0_G21T_o1 (dsDNA)
DNA 1: GCATCTCTAGGTAAAGTTCATTGAAAGATCGATAGAGCGATTGACAGCGTAGAATGAAGG
DNA 2: CCTTCATTCTACGCTGTCAATCGCTCTATCGATCTTTCAATGAACTTTACCTAGAGATGC
B6: NRC3_wobSeed9_DR0_T22C_o1 (dsDNA)
DNA 1: GCATCTCTAGGTAAAGTTCAGCGAAAGATCGATAGAGCGATTGACAGCGTAGAATGAAGG
DNA 2: CCTTCATTCTACGCTGTCAATCGCTCTATCGATCTTTCGCTGAACTTTACCTAGAGATGC
B7: NRC3_wobSeed5_DR0_G9C_o1 (dsDNA)
DNA 1: GCCCTTACCGGTCAAGGTTATAGCACGGGTGGTACGGCGATTGACAGCGTAGAATGAAGG
DNA 2: CCTTCATTCTACGCTGTCAATCGCCGTACCACCCGTGCTATAACCTTGACCGGTAAGGGC
B8: NRC3_wobSeed112_DR4_C22G_o1 (dsDNA)
DNA 1: GCTAGCCTAGGTCAGATCGGGGCAGTATACGCTATAGCGATTGACAGCGTAGAATGAAGG
DNA 2: CCTTCATTCTACGCTGTCAATCGCTATAGCGTATACTGCCCCGATCTGACCTAGGCTAGC
B9: NRC3_wobSeed112_DR4_C23G_o1 (dsDNA)
DNA 1: GCTAGCCTAGGTCAGATCGGGCGAGTATACGCTATAGCGATTGACAGCGTAGAATGAAGG
DNA 2: CCTTCATTCTACGCTGTCAATCGCTATAGCGTATACTCGCCCGATCTGACCTAGGCTAGC
B10: NRC3_wobSeed112_DR4_A27C_o1 (dsDNA)
DNA 1: GCTAGCCTAGGTCAGATCGGGCCAGTCTACGCTATAGCGATTGACAGCGTAGAATGAAGG
DNA 2: CCTTCATTCTACGCTGTCAATCGCTATAGCGTAGACTGGCCCGATCTGACCTAGGCTAGC
B11: NRC3_wobSeed120_DR4_A17G_o1 (dsDNA)
DNA 1: GCCCGAGTAGGTTACGGGGGGGCATTCAGTGCGAATGCGATTGACAGCGTAGAATGAAGG
DNA 2: CCTTCATTCTACGCTGTCAATCGCATTCGCACTGAATGCCCCCCCGTAACCTACTCGGGC
B12: NRC3_wobSeed46_DR1_A5T_o1 (dsDNA)
DNA 1: GCTTTCCAAGGTGAAAGGTCGTTGATGCACGCCTTGGCGATTGACAGCGTAGAATGAAGG
DNA 2: CCTTCATTCTACGCTGTCAATCGCCAAGGCGTGCATCAACGACCTTTCACCTTGGAAAGC
B13: NRC3_wobSeed46_DR1_C7G_o1 (dsDNA)
DNA 1: GCTTACGAAGGTGAAAGGTCGTTGATGCACGCCTTGGCGATTGACAGCGTAGAATGAAGG
DNA 2: CCTTCATTCTACGCTGTCAATCGCCAAGGCGTGCATCAACGACCTTTCACCTTCGTAAGC
B14: NRC3_wobSeed61_DR2_T12G_o1 (dsDNA)
DNA 1: GCCGTCCAAGGGCAGCAGGTCAGTGAAAGCGACGTGGCGATTGACAGCGTAGAATGAAGG
DNA 2: CCTTCATTCTACGCTGTCAATCGCCACGTCGCTTTCACTGACCTGCTGCCCTTGGACGGC
B15: NRC3_wobSeed4_DR0_A24C_o1 (dsDNA)
DNA 1: GCCCTACTGGGCCAAGGTCATTGCTCAGTCAAAGCAGCGATTGACAGCGTAGAATGAAGG
DNA 2: CCTTCATTCTACGCTGTCAATCGCTGCTTTGACTGAGCAATGACCTTGGCCCAGTAGGGC
B16: NRC3_wobSeed51_DR2_T5C_o1 (dsDNA)
DNA 1: GCCCCCGGAGGACAGAAGGTCAGAGCTGTCCGCTTTGCGATTGACAGCGTAGAATGAAGG
DNA 2: CCTTCATTCTACGCTGTCAATCGCAAAGCGGACAGCTCTGACCTTCTGTCCTCCGGGGGC
B17: NRC3_wobSeed51_DR2_C4G_o1 (dsDNA)
DNA 1: GCCGTCGGAGGACAGAAGGTCAGAGCTGTCCGCTTTGCGATTGACAGCGTAGAATGAAGG
DNA 2: CCTTCATTCTACGCTGTCAATCGCAAAGCGGACAGCTCTGACCTTCTGTCCTCCGACGGC
B18: NRC3_wobSeed51_DR2_G25T_o1 (dsDNA)
DNA 1: GCCCTCGGAGGACAGAAGGTCAGATCTGTCCGCTTTGCGATTGACAGCGTAGAATGAAGG
DNA 2: CCTTCATTCTACGCTGTCAATCGCAAAGCGGACAGATCTGACCTTCTGTCCTCCGAGGGC
B19: NRC3_wobSeed62_DR2_T20G_o1 (dsDNA)
DNA 1: GCTCTGCTAGGTCAGTTGGGCAGCTAACGAGCTGCCGCGATTGACAGCGTAGAATGAAGG
DNA 2: CCTTCATTCTACGCTGTCAATCGCGGCAGCTCGTTAGCTGCCCAACTGACCTAGCAGAGC
B20: NRC3_wobSeed89_DR3_G18A_o1 (dsDNA)
DNA 1: GCCTATGTAGGTTAAGGAGGTCATTCAGTTTGAAAGGCGATTGACAGCGTAGAATGAAGG
DNA 2: CCTTCATTCTACGCTGTCAATCGCCTTTCAAACTGAATGACCTCCTTAACCTACATAGGC
B21: NRC3_wobSeed12_DR0_T8G_o1 (dsDNA)
DNA 1: GCCCGACGGGGGCAAGGTTACCATAACGCACAGCCAGCGATTGACAGCGTAGAATGAAGG
DNA 2: CCTTCATTCTACGCTGTCAATCGCTGGCTGTGCGTTATGGTAACCTTGCCCCCGTCGGGC
B22: NRC3_wobSeed72_DR2_G5A_o1 (dsDNA)
DNA 1: GCTCAAGTAGGTTACGGGGGCATTCAGGGATGAAGAGCGATTGACAGCGTAGAATGAAGG
DNA 2: CCTTCATTCTACGCTGTCAATCGCTCTTCATCCCTGAATGCCCCCGTAACCTACTTGAGC
B23: NRC3_wobSeed115_DR4_A23C_o1 (dsDNA)
DNA 1: GCACAGACAGGTGAGTGAAGGTCACTCAGCTGGACGGCGATTGACAGCGTAGAATGAAGG
DNA 2: CCTTCATTCTACGCTGTCAATCGCCGTCCAGCTGAGTGACCTTCACTCACCTGTCTGTGC
B24: NRC3_wobSeed106_DR4_T28A_o1 (dsDNA)
DNA 1: GCCTCGAAAGGTCGGTTGAGGTGAGTAAACGGATAAGCGATTGACAGCGTAGAATGAAGG
DNA 2: CCTTCATTCTACGCTGTCAATCGCTTATCCGTTTACTCACCTCAACCGACCTTTCGAGGC
B25: NRC3_wobSeed65_DR2_T8A_o1 (dsDNA)
DNA 1: GCATATGAAGGTTATCGGGTCATTCAGTTTGCGCATGCGATTGACAGCGTAGAATGAAGG
DNA 2: CCTTCATTCTACGCTGTCAATCGCATGCGCAAACTGAATGACCCGATAACCTTCATATGC
B26: NRC3_wobSeed111_DR4_G25T_o1 (dsDNA)
DNA 1: GCCGAACTAGGTCAGAACAGGACATTGAAGGATGATGCGATTGACAGCGTAGAATGAAGG
DNA 2: CCTTCATTCTACGCTGTCAATCGCATCATCCTTCAATGTCCTGTTCTGACCTAGTTCGGC
B27: NRC3_wobSeed86_DR3_T17A_o1 (dsDNA)
DNA 1: GCGCTGCTAGGTCAGGATGGTCAGCTAACGGGTACGGCGATTGACAGCGTAGAATGAAGG
DNA 2: CCTTCATTCTACGCTGTCAATCGCCGTACCCGTTAGCTGACCATCCTGACCTAGCAGCGC
B28: NRC3_wobSeed86_DR3_A23T_o1 (dsDNA)
DNA 1: GCGCTGCTAGGTCAGGTTGGTCTGCTAACGGGTACGGCGATTGACAGCGTAGAATGAAGG
DNA 2: CCTTCATTCTACGCTGTCAATCGCCGTACCCGTTAGCAGACCAACCTGACCTAGCAGCGC
B29: NRC3_wobSeed86_DR3_G24A_o1 (dsDNA)
DNA 1: GCGCTGCTAGGTCAGGTTGGTCAACTAACGGGTACGGCGATTGACAGCGTAGAATGAAGG
DNA 2: CCTTCATTCTACGCTGTCAATCGCCGTACCCGTTAGTTGACCAACCTGACCTAGCAGCGC
B30: NRC3_wobSeed123_DR5_C4G_o1 (dsDNA)
DNA 1: GCCGTCGGAGGACAACAGGAGGTCAGAGCTGCCAGAGCGATTGACAGCGTAGAATGAAGG
DNA 2: CCTTCATTCTACGCTGTCAATCGCTCTGGCAGCTCTGACCTCCTGTTGTCCTCCGACGGC
B31: NRC3_wobSeed123_DR5_A15C_o1 (dsDNA)
DNA 1: GCCCTCGGAGGACACCAGGAGGTCAGAGCTGCCAGAGCGATTGACAGCGTAGAATGAAGG
DNA 2: CCTTCATTCTACGCTGTCAATCGCTCTGGCAGCTCTGACCTCCTGGTGTCCTCCGAGGGC

Sequence of RARb:RXRa (P10826 whole entry, chain 1 of 2): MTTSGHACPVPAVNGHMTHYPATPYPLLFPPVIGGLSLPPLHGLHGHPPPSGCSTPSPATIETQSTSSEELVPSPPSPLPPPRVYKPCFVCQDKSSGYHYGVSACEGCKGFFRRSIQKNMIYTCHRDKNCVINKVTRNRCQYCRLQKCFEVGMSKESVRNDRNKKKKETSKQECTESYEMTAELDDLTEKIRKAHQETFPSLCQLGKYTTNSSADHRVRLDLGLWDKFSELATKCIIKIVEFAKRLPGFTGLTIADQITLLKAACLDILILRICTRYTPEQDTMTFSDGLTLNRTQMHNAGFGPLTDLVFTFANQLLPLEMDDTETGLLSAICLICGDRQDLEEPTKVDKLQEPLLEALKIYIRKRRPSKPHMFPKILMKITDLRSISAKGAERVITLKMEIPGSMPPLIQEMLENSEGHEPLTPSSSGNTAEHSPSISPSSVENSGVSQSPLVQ
Sequence of RARb:RXRa (P19793 whole entry, chain 2 of 2): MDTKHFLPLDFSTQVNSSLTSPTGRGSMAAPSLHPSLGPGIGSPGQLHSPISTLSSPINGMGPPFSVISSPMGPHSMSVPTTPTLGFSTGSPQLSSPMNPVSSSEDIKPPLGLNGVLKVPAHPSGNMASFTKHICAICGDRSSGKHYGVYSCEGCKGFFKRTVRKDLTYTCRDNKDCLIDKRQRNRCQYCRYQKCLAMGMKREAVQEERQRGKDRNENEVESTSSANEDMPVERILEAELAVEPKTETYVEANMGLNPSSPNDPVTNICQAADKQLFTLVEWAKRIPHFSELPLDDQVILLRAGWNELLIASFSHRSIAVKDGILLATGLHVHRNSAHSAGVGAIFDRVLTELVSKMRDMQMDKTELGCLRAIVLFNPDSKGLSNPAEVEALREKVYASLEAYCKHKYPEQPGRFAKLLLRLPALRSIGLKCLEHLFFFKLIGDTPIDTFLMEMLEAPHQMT

This data set has as its target RARb:RXRa (Homo sapiens, UniProt P10826;P19793 full;full). Put plainly: no ligand; PBM; 270 nM : 90 nM RXRa; PBS pH 7.4, 2% milk, 0.02% Triton X-100, 1 mM DTT, BSA, 0.4 mg/ml salmon testes DNA. To be noted: tags: His kept;His cleaved; copies: 1;1; label: surface-attached array probe. A digest of the protocol:
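Ligand-free nuclear receptor dimers were bound for 1 h to custom Agilent 4×180K protein-binding microarrays. Detection used antibodies against each partner (one per run). Binding z-scores rest on regression-normalized fluorescence, with random background probes as the reference.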
As to B1, the binding signal is 3.06 PBM z-score against 500 random probes.

On to B2, for which the binding signal is 3.07 PBM z-score against 500 random probes.

In the case of B3, the binding signal was 5.43 PBM z-score against 500 random probes.

Regarding B4, the binding signal was 5.43 PBM z-score against 500 random probes.

As for B5, the binding signal was 3.11 PBM z-score against 500 random probes.

On to B6, for which the binding signal is 3.07 PBM z-score against 500 random probes.

As to B7, the binding signal is 3.08 PBM z-score against 500 random probes.

In the case of B8, the binding signal was 3.1 PBM z-score against 500 random probes.

With B9, the binding signal was 3.08 PBM z-score against 500 random probes.

On to B10, for which the binding signal was 3.08 PBM z-score against 500 random probes.

In the case of B11, the binding signal is 3.09 PBM z-score against 500 random probes.

Consider B12, for which the binding signal is 3.06 PBM z-score against 500 random probes.

For the molecule B13, the binding signal is 3.05 PBM z-score against 500 random probes.

For the molecule B14, the binding signal is 3.09 PBM z-score against 500 random probes.

For the molecule B15, the binding signal was 3.07 PBM z-score against 500 random probes.

On to B16, for which the binding signal is 3.13 PBM z-score against 500 random probes.

For B17, the binding signal was 3.1 PBM z-score against 500 random probes.

As to B18, the binding signal is 3.07 PBM z-score against 500 random probes.

Take B19: the binding signal is 3.09 PBM z-score against 500 random probes.

In the case of B20, the binding signal was 3.12 PBM z-score against 500 random probes.

B21: the binding signal was 3.13 PBM z-score against 500 random probes.

Take B22: the binding signal is 3.05 PBM z-score against 500 random probes.

Take B23: the binding signal was 3.12 PBM z-score against 500 random probes.

As to B24, the binding signal is 3.1 PBM z-score against 500 random probes.

Consider B25, for which the binding signal was 3.08 PBM z-score against 500 random probes.

In the case of B26, the binding signal is 3.08 PBM z-score against 500 random probes.

Consider B27, for which the binding signal was 3.06 PBM z-score against 500 random probes.

Take B28: the binding signal was 3.05 PBM z-score against 500 random probes.

For the molecule B29, the binding signal was 3.06 PBM z-score against 500 random probes.

As to B30, the binding signal is 3.11 PBM z-score against 500 random probes.

Consider B31, for which the binding signal is 3.1 PBM z-score against 500 random probes.
